Experiment [1] concerns the target Squirrel monkey NOGO (A56) plus GST tag (squirrel monkey). Briefly: direct ELISA on GST-NOGO-A56 from squirrel monkey, Abs490.
Experiment [2] concerns the target Marmoset NOGO (A56) plus GST tag (marmoset). In words: direct ELISA on GST-NOGO-A56 from marmoset, Abs490. In general terms: In an ELISA, binding on a coated surface is turned into a signal by an enzyme label.
Experiment [3] addresses Squirrel monkey NOGO (A56) plus GST tag (squirrel monkey). Briefly: SPR (Biacore T100), Nogo-A orthologue amine-coupled to CM5, antibody 0.125-8 nM flowed over; mean. For orientation: Surface plasmon resonance follows binding to a sensor surface in real time, without labels.
In experiment [4] the target is Cynomolgus monkey NOGO (A56) plus GST tag (cynomolgus monkey). Described as above.
For experiment [5], the target named is Marmoset NOGO (A56) plus GST tag (marmoset). The description is as above.
Experiment [6] deals with Rat NOGO (A56) plus GST tag (rat). The experiment is described as above.
The target in experiment [7] is GST-human NOGO-A56 (human). Briefly: SPR (Biacore T100), human Nogo-A amine-coupled to CM5, antibody 0.125-8 nM flowed over; mean.
Experiment [8] concerns the target Cynomolgus monkey NOGO (A56) plus GST tag (cynomolgus monkey). In words: direct ELISA on GST-NOGO-A56 from cynomolgus, Abs490.
Experiment [9] deals with Rat NOGO (A56) plus GST tag (rat). Briefly: direct ELISA on GST-NOGO-A56 from rat, Abs490.
Experiment [10] deals with Squirrel monkey NOGO (A56) plus GST tag (squirrel monkey). In words: SPR (Biacore T100), reverse format: antibody captured by Protein A, GST-NOGO-A56 flowed over; mean.
Experiment [11] addresses Cynomolgus monkey NOGO (A56) plus GST tag (cynomolgus monkey). The description is as above.
Experiment [12] deals with GST-human NOGO-A56 (human). Described as above.
Experiment [13] addresses Marmoset NOGO (A56) plus GST tag (marmoset). The description is as above.
The target in experiment [14] is Rat NOGO (A56) plus GST tag (rat). The description is as above.

Marmoset NOGO (A56) plus GST tag (marmoset), sequence (chain, as listed by the source limits assumed): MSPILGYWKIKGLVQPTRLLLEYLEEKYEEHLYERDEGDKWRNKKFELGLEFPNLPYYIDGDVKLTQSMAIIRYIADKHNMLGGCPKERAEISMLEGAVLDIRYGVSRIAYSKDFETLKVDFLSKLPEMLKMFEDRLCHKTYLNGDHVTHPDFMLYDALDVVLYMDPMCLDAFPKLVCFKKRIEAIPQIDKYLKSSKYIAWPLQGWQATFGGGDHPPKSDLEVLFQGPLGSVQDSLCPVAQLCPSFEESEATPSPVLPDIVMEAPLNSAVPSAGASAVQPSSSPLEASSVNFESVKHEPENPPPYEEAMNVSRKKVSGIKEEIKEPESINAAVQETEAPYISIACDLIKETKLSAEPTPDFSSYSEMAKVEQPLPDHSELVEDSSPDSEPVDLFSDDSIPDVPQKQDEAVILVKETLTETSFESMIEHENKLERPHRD
Squirrel monkey NOGO (A56) plus GST tag (squirrel monkey), sequence (chain, as listed by the source limits assumed): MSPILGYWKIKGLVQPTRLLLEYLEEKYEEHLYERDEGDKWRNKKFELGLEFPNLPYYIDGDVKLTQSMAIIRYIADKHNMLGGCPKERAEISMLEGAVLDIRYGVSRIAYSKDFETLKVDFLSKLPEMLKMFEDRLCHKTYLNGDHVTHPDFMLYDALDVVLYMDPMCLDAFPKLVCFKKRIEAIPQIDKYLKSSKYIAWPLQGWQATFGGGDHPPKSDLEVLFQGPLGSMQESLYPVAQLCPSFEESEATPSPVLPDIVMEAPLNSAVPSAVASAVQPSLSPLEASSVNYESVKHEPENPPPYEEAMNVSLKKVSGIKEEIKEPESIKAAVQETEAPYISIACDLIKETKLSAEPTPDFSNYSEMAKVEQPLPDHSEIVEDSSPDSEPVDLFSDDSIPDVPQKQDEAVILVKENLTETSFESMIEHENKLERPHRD
Cynomolgus monkey NOGO (A56) plus GST tag (cynomolgus monkey), sequence (chain, as listed by the source limits assumed): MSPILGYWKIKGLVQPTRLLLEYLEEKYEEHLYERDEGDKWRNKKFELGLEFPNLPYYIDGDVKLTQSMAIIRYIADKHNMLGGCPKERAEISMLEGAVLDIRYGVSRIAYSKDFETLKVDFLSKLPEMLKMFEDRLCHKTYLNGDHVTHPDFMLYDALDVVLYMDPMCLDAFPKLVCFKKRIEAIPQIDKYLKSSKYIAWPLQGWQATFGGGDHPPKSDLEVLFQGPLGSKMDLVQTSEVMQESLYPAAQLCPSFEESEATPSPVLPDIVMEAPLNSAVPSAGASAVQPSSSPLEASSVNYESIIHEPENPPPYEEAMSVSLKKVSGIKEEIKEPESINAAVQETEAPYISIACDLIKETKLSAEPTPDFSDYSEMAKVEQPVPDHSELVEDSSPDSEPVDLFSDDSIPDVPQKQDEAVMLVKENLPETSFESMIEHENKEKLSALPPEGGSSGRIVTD
Rat NOGO (A56) plus GST tag (rat), sequence (chain, as listed by the source limits assumed): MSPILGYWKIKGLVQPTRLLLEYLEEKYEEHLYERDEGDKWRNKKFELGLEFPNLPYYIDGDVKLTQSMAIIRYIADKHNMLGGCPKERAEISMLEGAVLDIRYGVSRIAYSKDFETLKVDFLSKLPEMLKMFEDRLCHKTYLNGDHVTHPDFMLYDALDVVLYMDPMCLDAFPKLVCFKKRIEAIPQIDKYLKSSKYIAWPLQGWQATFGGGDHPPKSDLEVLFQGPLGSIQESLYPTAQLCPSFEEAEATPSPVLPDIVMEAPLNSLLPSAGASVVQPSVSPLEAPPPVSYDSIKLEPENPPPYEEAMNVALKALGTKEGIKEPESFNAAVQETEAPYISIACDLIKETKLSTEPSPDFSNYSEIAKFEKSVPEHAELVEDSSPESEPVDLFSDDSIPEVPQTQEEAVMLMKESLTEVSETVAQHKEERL
GST-human NOGO-A56 (human), sequence (chain, as listed by the source limits assumed): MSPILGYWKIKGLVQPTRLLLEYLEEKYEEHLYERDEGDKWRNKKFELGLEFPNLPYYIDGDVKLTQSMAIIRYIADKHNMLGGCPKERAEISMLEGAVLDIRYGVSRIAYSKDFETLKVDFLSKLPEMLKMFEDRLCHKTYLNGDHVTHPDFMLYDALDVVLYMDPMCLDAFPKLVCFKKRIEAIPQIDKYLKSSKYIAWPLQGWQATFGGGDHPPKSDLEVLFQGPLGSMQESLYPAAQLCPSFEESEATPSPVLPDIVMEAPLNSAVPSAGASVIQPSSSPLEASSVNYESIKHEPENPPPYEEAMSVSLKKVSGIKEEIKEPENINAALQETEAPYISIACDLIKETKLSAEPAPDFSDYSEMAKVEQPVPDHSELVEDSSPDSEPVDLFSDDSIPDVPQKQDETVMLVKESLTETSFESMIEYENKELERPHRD

With chimeric 11C7 (antibody), the EC50 (read off the curve) in [1] is 0.04 µg/mL; in [2] it was 0.04 µg/mL; in [8] it was 0.06 µg/mL; in [9] it was 0.06 µg/mL. For the same substance, the Kd in experiment [3] stood at 0.26 nM; in [4] it was 0.23 nM; in experiment [5], 0.24 nM; in experiment [6], 0.11 nM; in experiment [7], 0.19 nM; in experiment [10], 2.69 nM. Further, the Kd in [11] came to 0.76 nM; in experiment [12], 0.57 nM; in experiment [13], 1.33 nM; in [14], 0.64 nM.

The term EC50 (read off the curve) denotes the concentration at which the effect is half-maximal. As a reminder, the Kd is the equilibrium constant for the complex coming apart.
